Assay results reported in doi:10.1101/467431 (bioRxiv, 2018).
Read-outs that look alike come from different tables or passages of the source.

What was measured:
Test in all cases: ITC
[1] = target: T1, monomeric actin (LatB-actin) (UniProt P68135 1-377)
[2] = target: T2, Sca2 C-terminal fragment, construct Sca_(868-1515) (Rickettsia conorii, UniProt Q92JF7 868-1515)
T2 sequence: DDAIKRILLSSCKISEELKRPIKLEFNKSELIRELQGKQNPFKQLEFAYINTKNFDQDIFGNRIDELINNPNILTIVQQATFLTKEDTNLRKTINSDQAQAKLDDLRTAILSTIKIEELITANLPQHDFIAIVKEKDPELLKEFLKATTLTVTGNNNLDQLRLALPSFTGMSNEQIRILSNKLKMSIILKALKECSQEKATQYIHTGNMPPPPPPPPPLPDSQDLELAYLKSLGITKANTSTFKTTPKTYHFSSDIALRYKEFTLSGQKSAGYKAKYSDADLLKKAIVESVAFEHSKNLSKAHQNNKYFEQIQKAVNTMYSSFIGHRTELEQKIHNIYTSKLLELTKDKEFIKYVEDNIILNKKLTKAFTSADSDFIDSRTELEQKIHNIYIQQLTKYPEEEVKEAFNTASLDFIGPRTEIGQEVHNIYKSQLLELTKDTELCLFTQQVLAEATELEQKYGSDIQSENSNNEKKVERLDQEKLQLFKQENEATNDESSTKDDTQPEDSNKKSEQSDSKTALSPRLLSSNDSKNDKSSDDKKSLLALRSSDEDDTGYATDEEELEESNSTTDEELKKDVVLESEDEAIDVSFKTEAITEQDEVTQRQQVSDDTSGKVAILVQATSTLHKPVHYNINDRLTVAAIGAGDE

[3] = target: T1, monomeric actin (LatB-actin); remark: listed apart in the source

Binder	stoichiometry N [1]	Kd [2]	Kd [1]	Kd [3]	stoichiometry N [3]
Sca2 N-terminal fragment, construct Sca_(34-670) (domain or fragment) ASFKDLVSKTPAWEKHNSTQQQNIWKDLTPNEKIKKWQEAALVPSFTQAQNDLGIKYKETDLSSFLDNTRHKARQARAEILLYIERVKQQDFDTKKQAYINQGVVPTDIEAATNLGISYDPSKIDNNVEHDQKVRRAEKDKKAVIELYVSSINRGIKYKHYVDNDIIPEIQEVRTALNMNKDDAQSFVASIRTEIMENAKGQYIADSHIPTEKELKKKFGISRDDNRDGYIKSIRLKVMDKEKPQYIADSHIPTEKELEQKFGADKGEATNYIASIATQMMLDKKSYYIDNNIIPNADELMNEFKIGPVKATSYINQIRAGIEANQFLNNNDTTKPSTGRSQKKSGSKNDHWYMSNQSINNTGTSARIVTGREKKQRYFFDPISTFKTYFNTKASKGNLTQSQHNINRIIQQEENIEEFKNLIKTDPIAALTLQVDSSYKQEAVTTILSDFNDDTIQRVLFSNDKGKLDFNTNIDVKNRPILQELLENSSSEEKTKFAERIQDYATRNISNSQFEEKARLDLIKLAASKDKSSVENFLTLQLELKNRMQPYVVNSVYILTPEIVKEINIELKNKGLIRDSLTKDYMIKLAKEVNNHTLNSVIKVILSDSKILSNETNKILGLAVSNNANNLEQTQSG	2 actin subunits per Sca_(34-670)	7 µM			
AAANNNNNNNNNNLGARSVLLEAIRKGIQLRKV (domain or fragment) [MBP fusion of the WH2 domain of WAVE1 (WAVE1 WH2a)]	1.07		0.38 µM		
Sca2 construct Sca_(869-1060) (domain or fragment) DAIKRILLSSCKISEELKRPIKLEFNKSELIRELQGKQNPFKQLEFAYINTKNFDQDIFGNRIDELINNPNILTIVQQATFLTKEDTNLRKTINSDQAQAKLDDLRTAILSTIKIEELITANLPQHDFIAIVKEKDPELLKEFLKATTLTVTGNNNLDQLRLALPSFTGMSNEQIRILSNKLKMSIILKALK				10.8 µM	1 LatB-actin monomer per Sca_(869-1060)
